In US20170029484A1 (published 2017):
Blank lines part the entries; values can stand above or below the binder they belong to. Where no end group is shown, it is not given here. [ ]: non-standard residue; d: D form. pS = N[C@@H](COP(=O)(O)O)C(=O)O

Columns and labels:
[1] = molecular target: T1, desmuslin/synemin peptide on HLA-A*02:01 (human); assay: cytokine release
T1 peptide: RTF[pS]PTYGL

[2] = molecular target: T2, insulin receptor substrate 2 (IRS-2) peptide on HLA-A*02:01 (human); assay: killing
T2 peptide: RVA[pS]PTSGV

[3] = molecular target: T3, β-catenin peptide on HLA-A*02:01 (human); assay: killing
T3 peptide: YLD[pS]GIHSGA

[4] = molecular target: T2, insulin receptor substrate 2 (IRS-2) …; assay: cytokine release
[5] = molecular target: T3, β-catenin peptide on HLA-A*02:01; assay: cytokine release
[6] = molecular target: T4, CDC25b (M-phase inducer phosphatase 2) peptide on HLA-A*02:01 (human); assay: killing
T4 peptide: GLLG[pS]PVRA

binding result [1]: recognises
B1: DESA (TCR, V domains shown)
Valpha: AQSVTQPDARATVSEGASLRLRCKYSYSGTPYLFWYVQYPRQGLQLLLKYYSGDPVVQGVNGFEAEFSKSNSSFHLRKASVHWSDSAVYFCVLSYSNNRIFFGDGTQLVMKP
Vbeta: DSGVVQSPRHIIKEKGGRSVLTCIPISGHSNVVWYQQTLGKELKFLIQHYEKVERDKGFLPSRFSVQQFDDYHSEMNMSALELEDSAMYFCASSLGGGEVFFGKGTRLTVV

binding result [4]: recognises
B4: IRS-2B (TCR, V domains shown)
Valpha: AQSVTQPDARVTVSEGASLQLRCKYSYSGTPYLFWYVQYPRQGLQLLLKYYSGDPVVQGVNGFEAEFIKSNSSFHLRKASVHWSDSAVYFCAVSAGSGGKLTLGAGTRLQVNL
Vbeta: EAAVTQSPRSKVAVTGGKVTLSCHQANNHDYMYWYRQDTGHGLRLIHYSYVADSTEKGDIPDGYKASRPSQENFSLILELASLSQTAVYFCASSDRDNYAEQFFGPGTRLTVL

binding result [5]: recognises
B5: βCATA (TCR, V domains shown)
Valpha: GQQVQQSPASLVLQEGENAELQCNFSSTATRLQWFYQHPGGRLVSLFYNPSGTKHTGRLTSTTVTNERRSSLHISSSQTTDSGTYFCAIPPGTGSKLSFGKGAKLTVSP
Vbeta: NTKITQSPRYLILGRANKSLECEQHLGHNAMYWYKQSAEKPPELMFLYNLKQLIRNETVPSRFIPECPDSSKLLLHISAVDPEDSAVYFCASSQGQKQYFGPGTRLTVL

The next lines start with the binder.

B2: the CDC25b TCR (TCR, V domains shown)
Valpha: GEQVEQRPPHLSVREGDSAVIICTYTDPNSYYFFWYKQEPGAGLQLLMKVFSSTEINEGQGFTVLLNKKDQQLSLNLTAAHPGDSAVYFCAVKPGGYKVVFGSGTRLLVSP
Vbeta: EAAVTQSPRNKVAVTGGKVTLSCNQTNNHNNMYWYRQDTGHGLRLIHYSYGAGSTEKGDIPDGYKASRPSQENFSLILELATPSQTSVYFCASGGDTQYFGPGTRLLVL
binding result [2]: no recognition
binding result [3]: no recognition

B3: DESB (TCR, V domains shown)
Valpha: AQSVTQPDARVTVSEGASLQLRCKYSYSGTPYLFWYAQYPRQGLQLLLKYYSGDPVVQGVNGFEAEFSKSNSSFHLRKASVHWSDSAVYFCVLRYGGNNKLTFGQGTVLSVIP
Vbeta: EAAVTQSPRSKVAVTGGKVTLSCHQTNNHDYMYWYRQDTGHGLRLIHYSYVADSTEKGDIPDGYKASRPSQENFSLILELASLSQTAVYFCASRYRDTQYFGPGTRLLVL
binding result [1]: recognises

B6: IRS-2A (TCR, V domains shown)
Valpha: AQSVTQPDARVTVSEGASLQLRCKYSYSGTPYLFWYVQYPRQGLQLLLKYYSGDPVVQGVNGFEAEFIKSNSSFHLRKASVHWSDSAVYFCAVSEGADRLTFGKGTQLIIQP
Vbeta: EAGVTQSPRYAVLQEGQAVSFWCDPISGHDTLYWYQQPRDQGPQLLVYFRDEAVIDNSQLPSDRFSAVRPKGTNSTLKIQSAKQGDTATYLCASSLLDSSYEQYFGPGTRLTVL
binding result [6]: no recognition
